Experimental data taken from article PMC3815676 (Journal of immunology (Baltimore, Md. : 1950), 2013).
Like-named read-outs stand apart in the source and are kept apart here. One block for each compound: values may come before it.

Assays:
[1] = system: CD4 T cell clone BDC-5.2.9; type: cell-based, NOD mouse; conditions: 24 h
[2] = target: islet amyloid polypeptide (IAPP), peptide CS19 peptide on I-Ag7 (mouse); assay: IFN-γ ELISA
[3] = target: islet amyloid polypeptide (IAPP), peptide TS17 peptide on I-Ag7 (mouse); assay: IFN-γ ELISA
[4] = target: islet amyloid polypeptide (IAPP), peptide NS18 peptide on I-Ag7 (mouse); assay: IFN-γ ELISA
[5] = target: islet amyloid polypeptide (IAPP), peptide KG38 peptide on I-Ag7 (mouse); assay: IFN-γ ELISA
[6] = target: islet amyloid polypeptide (IAPP), peptide KS20 peptide on I-Ag7 (mouse); assay: IFN-γ ELISA
[7] = target: islet amyloid polypeptide (IAPP), peptide KQ10 peptide on I-Ag7 (mouse); assay: IFN-γ ELISA
[8] = target: islet amyloid polypeptide (IAPP), peptide KV17 peptide on I-Ag7 (mouse); assay: IFN-γ ELISA
[9] = target: islet amyloid polypeptide (IAPP), peptide KN14 peptide on I-Ag7 (mouse); assay: IFN-γ ELISA
[10] = T cell clone BDC-5.2.9 (2 × 10^4) with peritoneal exudate cells (2.5 × 10^4) and peptide, IFN-γ in culture supernatants of duplicate wells by ELISA

EC50 [1, 10]: > 100000 nM
Compound: NTATCATQRLANFLVRSS [NS18]

EC50 [1, 10]: > 100000 nM
Compound: KCNTATCATQ [KQ10]

EC50 [1, 10]: > 100000 nM
Compound: TATCATQRLANFLVRSS [TS17]

Further lines, the compound ahead of its results:

Compound: KCNTATCATQRLAN [KN14]
EC50 [1, 10]: > 100000 nM

Compound: BDC-5.2.9
EC50 of peptide [2]: 5 nM
EC50 of peptide [3]: > 100000 nM
EC50 of peptide [4]: > 100000 nM
EC50 of peptide [5]: 0.2 nM
EC50 of peptide [6]: 0.2 nM
EC50 of peptide [7]: > 100000 nM
EC50 of peptide [8]: 10 nM
EC50 of peptide [9]: > 100000 nM

Compound: CC(C)C[C@H](NC(=O)[C@H](CC(N)=O)NC(=O)[C@H](CC(N)=O)NC(=O)[C@H](CO)NC(=O)[C@H](CO)NC(=O)[C@H](CCCNC(=N)N)NC(=O)[C@@H](NC(=O)[C@H](CC(C)C)NC(=O)[C@H](Cc1ccccc1)NC(=O)[C@H](CC(N)=O)NC(=O)[C@H](C)NC(=O)[C@H](CC(C)C)NC(=O)[C@H](CCCNC(=N)N)NC(=O)[C@H](CCC(N)=O)NC(=O)[C@@H](NC(=O)[C@H](C)NC(=O)[C@@H]1CSSC[C@H](NC(=O)[C@@H](N)CCCCN)C(=O)N[C@@H](CC(N)=O)C(=O)N[C@@H]([C@@H](C)O)C(=O)N[C@@H](C)C(=O)N[C@@H]([C@@H](C)O)C(=O)N1)[C@@H](C)O)C(C)C)C(=O)NCC(=O)N1CCC[C@H]1C(=O)N[C@H](C(=O)N[C@@H](CC(C)C)C(=O)N1CCC[C@H]1C(=O)N1CCC[C@H]1C(=O)N[C@H](C(=O)N[C@@H](CC(N)=O)C(=O)N[C@H](C(=O)NCC(=O)N[C@@H](CO)C(=O)N[C@@H](CC(N)=O)C(=O)N[C@H](C(=O)N[C@@H](Cc1ccc(O)cc1)C(=O)NCC(=O)O)[C@@H](C)O)C(C)C)[C@@H](C)O)C(C)C [KG38]
EC50 [1]: 0.2 nM
